Reference: article PMC3286869 (Journal of Medicinal Chemistry, 2012)
Bridges are numbered along the chain shown (N, C = ends). Where no end group is shown, it is not given here. [ ]: non-standard residue; d: D form. dLys(N3) = [N-]=[N+]=NCCCC[C@@H](N)C(=O)O; Lys(N3) = [N-]=[N+]=NCCCC[C@H](N)C(=O)O; dPra = C#CC[C@@H](N)C(=O)O; Pra = C#CC[C@H](N)C(=O)O

T1: β-catenin (UniProt P35222 1-781)
T1 sequence (looked up): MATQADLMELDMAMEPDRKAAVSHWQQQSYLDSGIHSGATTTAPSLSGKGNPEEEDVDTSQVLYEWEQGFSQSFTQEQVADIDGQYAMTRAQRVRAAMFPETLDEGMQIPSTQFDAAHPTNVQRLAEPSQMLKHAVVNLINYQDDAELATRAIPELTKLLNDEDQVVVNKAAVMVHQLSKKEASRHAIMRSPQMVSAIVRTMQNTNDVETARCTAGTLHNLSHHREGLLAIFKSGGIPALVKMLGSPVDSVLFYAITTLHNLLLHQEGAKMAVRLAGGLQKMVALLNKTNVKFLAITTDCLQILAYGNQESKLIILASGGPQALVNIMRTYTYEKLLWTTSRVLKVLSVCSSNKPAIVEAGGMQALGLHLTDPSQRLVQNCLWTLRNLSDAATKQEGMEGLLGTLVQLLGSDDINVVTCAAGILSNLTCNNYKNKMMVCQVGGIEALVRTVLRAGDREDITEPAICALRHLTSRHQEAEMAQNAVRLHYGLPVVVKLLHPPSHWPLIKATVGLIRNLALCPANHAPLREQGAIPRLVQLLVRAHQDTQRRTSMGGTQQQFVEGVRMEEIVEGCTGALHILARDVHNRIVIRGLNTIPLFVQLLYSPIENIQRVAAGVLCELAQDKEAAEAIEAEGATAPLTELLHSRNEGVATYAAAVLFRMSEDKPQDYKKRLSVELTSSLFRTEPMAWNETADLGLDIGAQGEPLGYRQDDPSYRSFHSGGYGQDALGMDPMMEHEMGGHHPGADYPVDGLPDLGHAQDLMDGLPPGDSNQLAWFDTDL


Each binder was assayed against T1, β-catenin (assay: fluorescence polarisation).
Binder Ac-LSQEQLEHRERSLQTLRDIQRMLF-NH2 [BCL9 24-mer peptide 1] has a Ki of 0.6 µM.
Work on Ac-LSQEQLEHRERSLQTLRDIQRLLF-NH2 [BCL9 24-mer peptide 2 (M372L)] yielded a Ki of 0.94 µM.
Work on LSQEQLEHR[Lys(N3)]RSL[Pra]TLRDIQRLLF (triazole 10-14; not fully specified (N-terminus, C-terminus)) [triazole-stapled BCL9 peptide 11] yielded a Ki of 0.33 µM.
LSQEQLEHR[Lys(N3)]RSL[dPra]TLRDIQRLLF (triazole 10-14; not fully specified (N-terminus, C-terminus)) [triazole-stapled BCL9 peptide 12] was tested, and the Ki was 0.13 µM.
Binder LSQEQLEHR[Pra]RSL[Lys(N3)]TLRDIQRLLF (triazole 10-14; not fully specified (N-terminus, C-terminus)) [triazole-stapled BCL9 peptide 16 (reversed linker, L-Pra and L-Nle(εN3))] has a Ki of 0.77 µM.
LSQEQLEHR[Pra]RSL[dLys(N3)]TLRDIQRLLF (triazole 10-14; not fully specified (N-terminus, C-terminus)) [triazole-stapled BCL9 peptide 17 (reversed staple, D-Nle(εN3) at i+4)] showed a Ki of 1.17 µM.
In the case of LSQEQLEHR[dPra]RSL[Lys(N3)]TLRDIQRLLF (triazole 10-14; not fully specified (N-terminus, C-terminus)) [triazole-stapled BCL9 peptide 18 (reversed staple, D-Pra at position 360)], the Ki is reported as 4.3 µM.
With LSQEQLEHR[Lys(N3)]RSL[Pra]TLRDIQRLLF (not fully specified (N-terminus, C-terminus)) [BCL9 peptide 3 (linear precursor of 11)] the Ki was 1.4 µM.
In the case of LSQEQLEHR[Lys(N3)]RSL[dPra]TLRDIQRLLF (not fully specified (N-terminus, C-terminus)) [BCL9 peptide 4 (linear precursor of 12)], the Ki is reported as 4.9 µM.
LSQEQLEHR[Pra]RSL[dLys(N3)]TLRDIQRLLF (not fully specified (N-terminus, C-terminus)) [BCL9 peptide 9 (linear precursor of 17)] showed a Ki of 11 µM.

Biological target: T1, β-catenin
Test: fluorescence polarisation
Remark: another data set of the same source
With LSQEQ[Lys(N3)]EHR[dPra]RSLQTLRDIQRLLF (not fully specified (N-terminus, C-terminus)) [BCL9 peptide 19 (linkers closer to the N-terminus, linear)] the Ki was 1.97 µM.
Binder LSQEQ[Lys(N3)]EHR[dPra]RSLQTLRDIQRLLF (triazole 6-10; not fully specified (N-terminus, C-terminus)) [triazole-stapled BCL9 peptide 20 (staple closer to the N-terminus)] has a Ki of 0.41 µM.
With LSQEQLEHRERSL[Lys(N3)]TLR[dPra]IQRLLF (not fully specified (N-terminus, C-terminus)) [BCL9 peptide 21 (linkers closer to the C-terminus, linear)] the Ki was 2.01 µM.
Binder LSQEQLEHRERSL[Lys(N3)]TLR[dPra]IQRLLF (triazole 14-18; not fully specified (N-terminus, C-terminus)) [triazole-stapled BCL9 peptide 22 (C-terminal stapled peptide)] has a Ki of 0.26 µM.
Work on LSQEQLEHRERSL[Pra]TLR[dLys(N3)]IQRLLF (not fully specified (N-terminus, C-terminus)) [BCL9 peptide 23 (reverse linkers towards the C-terminus, linear)] yielded a Ki of 6.66 µM.
Work on LSQEQLEHRERSL[Pra]TLR[dLys(N3)]IQRLLF (triazole 14-18; not fully specified (N-terminus, C-terminus)) [triazole-stapled BCL9 peptide 24 (reverse staple towards the C-terminus)] yielded a Ki of 0.56 µM.
